Target: Vlp15/16 of B. miyamotoi HT31 (B. miyamotoi HT31)
Test: ELISA; Vlp15/16 (5 µg/ml) immobilised, increasing amounts of plasminogen (0 to 20 µM); non-linear regression, one-site specific binding model

Substance: Human glu-plasminogen (natural protein)
- Kd: 354 nM
